The record followed here is PMC4569481.

This experiment has as its target Dihydrolipoamide dehydrogenase (Lpd) of P. aeruginosa, recombinant full length (Lpd^1-478) (P. aeruginosa strain PAO1) (UniProt Q9I3D1). In words: ELISA; Lpd (5 μg/ml) coated on microtiter plates overnight at 4°C; vitronectin (0.01–12.5 μg/ml), recombinant vitronectin constructs (5 μg/ml) or clusterin (0.01–20 μg/ml) added 1 h at RT; detected with antibodies, absorbance at 492 nm.

Dihydrolipoamide dehydrogenase (Lpd) of P. aeruginosa, recombinant full length (Lpd^1-478) (P. aeruginosa strain PAO1), sequence (Q9I3D1 whole entry): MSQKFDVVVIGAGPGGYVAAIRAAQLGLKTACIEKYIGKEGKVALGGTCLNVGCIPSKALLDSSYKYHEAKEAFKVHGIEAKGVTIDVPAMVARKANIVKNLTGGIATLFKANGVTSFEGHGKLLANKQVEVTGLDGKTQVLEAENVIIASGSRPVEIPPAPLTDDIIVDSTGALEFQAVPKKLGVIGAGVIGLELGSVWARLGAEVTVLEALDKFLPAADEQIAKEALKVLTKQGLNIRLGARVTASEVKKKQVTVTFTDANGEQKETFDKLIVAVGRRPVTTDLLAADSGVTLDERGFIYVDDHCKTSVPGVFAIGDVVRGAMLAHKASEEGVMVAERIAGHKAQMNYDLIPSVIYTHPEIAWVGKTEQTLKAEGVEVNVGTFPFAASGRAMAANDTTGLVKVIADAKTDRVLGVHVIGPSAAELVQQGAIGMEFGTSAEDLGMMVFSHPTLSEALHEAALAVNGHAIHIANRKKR

For vitronectin^80-353 (domain or fragment), the percent reduction of binding (ELISA signal; reference not named) came to 70%.
